Experimental data from patent US7745417B2, “Nucleosides or nucleotides having novel unnatural bases and use thereof” (RIKEN, priority 2002, dated 2010).
Where two headings read alike, the source gives them in different places.

Assays:
[1] = molecular target: T1, Raf-1 RBD/Ras interaction (Homo sapiens, UniProt P04049); assay: Inhibition of Raf-1 RBD/Ras interaction; assay type: biochemical; settings: compared with aptamer from N60 pool
T1 construct: GST (N); made in house; host or cells: E. coli
From the text: In this reference example, with the aim of designing a novel RNA molecule selectively regulating Ras/Raf-1 interaction in cellular signal transduction, RNA aptamers specifically binding to Raf-1 RBD were isolated by in vitro selection techniques. An RNA aptamer obtained from a pool containing random sequences of 60 nucleotides (N60) inhibited Raf-1 RBD/Ras interaction. […] In response to this, the selection technique was partially modified and used for selection on a pool containing newly designed RNA random sequences of 45 nucleotides (N45). The RT-PCR products were each subcloned into TA cloning vector pCR®II-TOPO using a TOPO TA Cloning Kit Dual (Invitrogen), and nucleotide sequences were determined for individual clones using a dRhodamine Terminator Cycle Sequencing Ready Reaction Kit (Applied Biosystems).

[2] = Filter binding % (filter binding method, Table 2); settings: triplicate average, standard deviation in parentheses
Method: (§1) The binding efficiency to Raf-1 RBD was measured for each RNA by a filter binding method (Raf-1 RBD/RNA=300:5 nM). Standard deviations are in parentheses. ^a RNA 9A transcribed from s-free template DNA in the presence of 0.4 mM 5IUTP. ^b RNA 9A transcribed from s-free template DNA in the presence of 0.25 mM 5IyTP.

[3] = molecular target: T2, Raf-1 RBD (Homo sapiens, UniProt P04049); assay: Binding efficiency to Raf-1 RBD by filter binding method; settings: Raf-1 RBD/RNA=300:5 nM; triplicate average, standard deviation in parentheses
T2 construct: human Raf-1 RBD (amino acid residues 51-131); GST (N); made in house; host or cells: E. coli
Method: In this example, to examine changes in binding activity to Raf-1 RBD, each RNA site-selectively introduced with 5Iy was measured for binding efficiency by a filter binding method (Table 2). […] This means that the inventive method for site-selective introduction of 5Iy is advantageous.
as §1
Each RNA whose 5′-terminus was ^32P -labeled was warmed in Buffer A at 75° C. for 3 minutes and then allowed to stand at room temperature for 10 minutes or longer to form the secondary structure of RNA. On the other hand, to prepare Raf-1 RBD, human Raf-1 RBD (amino acid residues 51-131) was expressed as a GST (glutathione transferase)-fusion protein in E. coli cells and purified from the supernatant of crushed cells by column chromatography. Rat RGL RBD (amino acid residues 632-734) [Koyama et al., 1996] and human B-Raf RBD (amino acid residues 149-226) were also expressed as GST-fusion proteins in E. coli cells and purified in the same manner.

[4] = molecular target: B-Raf RBD/Ras interaction (Homo sapiens, UniProt P15056)
B-Raf RBD/Ras interaction, sequence (P15056 149-226): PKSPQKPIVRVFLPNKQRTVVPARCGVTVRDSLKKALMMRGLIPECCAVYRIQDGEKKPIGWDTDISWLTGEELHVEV

[5] = molecular target: T3, Raf-1 GST-RBD (Homo sapiens, UniProt P04049); assay: Gel shift assay of binding to GST-RBD; settings: 5% non-denaturing polyacrylamide gel
T3 construct: human Raf-1 RBD (amino acid residues 51-131); GST (N); made in house; host or cells: E. coli
Method: The product (XL) obtained by crosslinking reaction an equal concentration (0.1 μM) mixture of 9A(5Iy87) and Raf-1 RBD was purified from a gel and analyzed for binding between XL and GSTRBD by gel shift assay. As a control of RNA 9A dimer, RNA 9A molecules were also linked in tandem to newly prepare RNA 9A×2 (200 nucleotides in total length), followed by gel shift assay. RNA 9A×2 is an RNA molecule of 200 nucleotides in total length that has two essential regions of RNA 9A (residues 1-80) in its molecule. It was prepared by transcription reaction using T7 RNA polymerase (Epicentre) and subcloned into vector pCR®II-TOPO (Invitrogen).
Each RNA whose 5′-terminus was ^32P-labeled (0.8 pmol) was warmed in 20 μl Buffer A at 75° C. for 3 minutes and then allowed to stand at room temperature for 10 minutes or longer to form the secondary structure of RNA. […] Each aliquot was supplemented with 5 μl Raf-1 GST-RBD solution (containing, in addition to RBD, 160 μg/ml BSA, 1 mM DTT and 10% glycerol in Buffer A), incubated at 37° C. for 30 minutes, and then analyzed by electrophoresis on a 5% non-denaturing polyacrylamide gel (acrylamide:bisacrylamide=39:1). […]

[6] = molecular target: T7 RNA polymerase (Escherichia phage T7, UniProt P00573); settings: for misincorporation: 5IyTP +; for 5Iyp (number of nucleotides in transcription product): transcribed with 0.25 mM 5IyTP (+), theoretical number in parentheses
T7 RNA polymerase, sequence (P00573 whole entry): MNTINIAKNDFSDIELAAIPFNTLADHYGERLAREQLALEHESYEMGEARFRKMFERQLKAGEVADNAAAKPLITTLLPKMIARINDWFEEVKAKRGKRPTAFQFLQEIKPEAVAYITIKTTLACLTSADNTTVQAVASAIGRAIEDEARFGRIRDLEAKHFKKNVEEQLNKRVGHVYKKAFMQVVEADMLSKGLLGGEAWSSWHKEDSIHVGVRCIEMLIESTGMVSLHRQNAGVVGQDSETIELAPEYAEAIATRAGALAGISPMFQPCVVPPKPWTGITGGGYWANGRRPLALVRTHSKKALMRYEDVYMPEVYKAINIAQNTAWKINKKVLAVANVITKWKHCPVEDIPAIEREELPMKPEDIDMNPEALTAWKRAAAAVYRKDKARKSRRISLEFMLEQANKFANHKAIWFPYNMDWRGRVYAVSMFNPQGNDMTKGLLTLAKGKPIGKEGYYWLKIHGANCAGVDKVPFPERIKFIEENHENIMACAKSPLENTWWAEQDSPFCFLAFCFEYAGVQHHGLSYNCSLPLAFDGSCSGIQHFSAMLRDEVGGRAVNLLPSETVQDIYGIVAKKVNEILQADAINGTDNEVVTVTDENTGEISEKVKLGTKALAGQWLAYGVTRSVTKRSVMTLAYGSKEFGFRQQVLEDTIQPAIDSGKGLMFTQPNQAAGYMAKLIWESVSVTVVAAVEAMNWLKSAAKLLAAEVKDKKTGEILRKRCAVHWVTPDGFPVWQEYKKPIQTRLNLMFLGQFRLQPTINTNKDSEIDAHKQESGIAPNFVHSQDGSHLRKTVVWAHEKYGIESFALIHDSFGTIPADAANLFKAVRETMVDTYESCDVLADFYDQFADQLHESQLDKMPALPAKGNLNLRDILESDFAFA
Method: The reaction composition of T7 transcription may be the same as described in Ohtsuki et al., 2001. Details are as follows: 40 mM Tris-HCl (pH 8.0), 5 mM DTT, 24 mM MgCl2, 2 mM spermidine, 0.01% TritonX-100, 10 mM GMP, 1 mM NTPs, 0-0.25 mM 5IyTP, 0.2 μl/μl template DNA, and 2.5 U/μl T7 RNA polymerase (TaKaRa). After enzymatic reaction at 37° C. for 6 hours, each reaction product was purified by electrophoresis on an 8% polyacrylamide-7M urea gel.
When T7 transcription reaction is performed in the presence of [α-^32P]ATP or [α-^32P]GTP, a nucleoside 3′-phosphate (Np) 5′-terminal to A or G is labeled with ^32P. Each gel-purified RNA was completely digested into Np by RNase T2 (Sigma). If 5Iy is introduced at residue 84 or 92, the nucleoside 3′-phosphate of 5Iy (5IyTp) is labeled with ^32P via [α-^32P]GTP, while if 5Iy is introduced at residue 87, 5IyTp is labeled via [α-^32P]ATP (FIG. 5, FIG. 6-b). For base composition analysis of 5Iy-containing RNAs, each of the completely digested products was separated by 2D-TLC and determined for each nucleotide content.
More specifically, to completely digest RNA, 0.75 μl RNase T2 solution (5 units/μl; 100 mM NaOAc pH 4.5, 10% glycerol) was added to 4.25 μl aqueous solution containing the labeled RNA and a 0.25 OD E. coli-derived tRNA mixture (Sigma), followed by overnight enzymatic reaction at 37° C. A part of the reaction solution was spotted onto a 10 cm×10 cm TLC plate (Funacell SF; Funakoshi Co., Ltd., Japan) and developed in two dimensions. Developing solutions for the first and second dimensions are isobutyric acid/ammonia/water (66:1:33 by volume) and 2-propanol/hydrochloric acid/water (70:15:15 by volume), respectively. The developed spots were detected and quantified using a bioimaging analyzer (BAS2500, Fuji Photo Film Co., Ltd., Japan).
Each value was calculated from the following equation. The theoretical numbers of nucleotides are in parentheses.

[7] = tested on: Ras-induced Raf-1 activation; assay: Ras-induced Raf-1 activation in a cell-free system; assay type: biochemical; settings: membrane fraction of Sf9 cells expressing Ras and Raf-1, cytoplasmic fraction of HEK293 cells

B1: RNA 9A: anti-(Raf-1) RNA aptamer binding to Raf-1 RBD, 100 bases, SEQ ID NO: 1 (nucleic acid)
chain: GGGAGUGGAGGAAUUCAUCGAGGCAUAUGUCGACUCCGUCUUCCUUCAAACCAGUUAUAAAUUGGUUUUAGCAUAUGCCUUAGCGACAGCAAGCUUCUGC
modifications: chemistry not given here
inhibitory capacity against Raf-1 RBD/Ras interaction [1]: higher inhibitory capacity | Filter binding % [2]: 0.2 (0.1) % | Raf-1 RBD binding % [3]: 25 (5) % | inhibition of B-Raf RBD/Ras interaction [4]: did not inhibit | complex formation with GST-RBD (gel shift pattern) [5]: 1:1 complex | misincorporation ([6]; [α-32P]ATP label): 0.45% | 5Iyp (number of nucleotides in transcription product) ([6]; [α-32P]ATP label): 0.10(0) | misincorporation ([6]; [α-32P]GTP label): 0.41% | 5Iyp (number of nucleotides in transcription product) ([6]; [α-32P]GTP label): 0.09(0) | inhibition of Ras-induced Raf-1 activation [7]: strongly inhibited
